This is an account of results in patent US20230391888A1 (Sanofi, published 2023).

For experiment [1], the target named is T1, human HER2 (1129-ER, R&D Systems) (human, UniProt P04626 23-652).
T1 construct: also called Receptor tyrosine-protein kinase erbB-2
Briefly: SPR; HER2 captured with the anti-human Fc antibody, antibody constructs as analytes (method in paragraph 368); FIG. 5A-5B. Here is the method:
(§1) Surface plasmon resonance (SPR) was used to assess the binding of antigens to antibody. Binding of antigens to the antibody constructs was measured using surface plasmon resonance (SPR) with a BIAcore 3000 instrument (GE Healthcare) with HBS-EP buffer (GE Healthcare). Human IL4 (IL004, Millipore) and human IL13 (IL012, Millipore), human HER2 (1129-ER, R&D Systems), human TNFa (H8916, SIGMA Aldrich), human CTLA4 (CT4-H5229, ACRO Biosystems), human PD-1 (8986-PD, R&D Systems), and human IL6Ra (227-SR/CF, R&D Systems) were used as antigens. The anti-human Fc capture antibody (human antibody capture kit, GE Life Sciences) was immobilized via primary amine groups (11000 RU) on a research grade CM5 chip (GE Life Sciences) using standard procedures. […] Binding tests with HER2 was performed by capture of the antigen with the anti-human Fc antibody. The tested antibody constructs were used as analytes and injected at 100 nM concentration for 240 sec with a dissociation time of 300 sec at a flow rate of 30 μL/min. Binding kinetics measurements were done using the captured antibodies with injects of two-fold serial dilutions of the analytes of 3 nM to 100 nM. […] Chip surfaces were regenerated with 2 min injects of the regeneration buffer provided with the capture kit. Sensorgrams were double referenced with a blank chip surface and HBS-EP buffer blanks. Data analysis was performed using the BIAevaluation software v4.1.

The target of experiment [2] is T2, human CD123-Fc-His fusion protein (internal source) (human, UniProt P26951 19-305).
T2 construct: not shown: Fc and His tag
T2 sequence (looked up): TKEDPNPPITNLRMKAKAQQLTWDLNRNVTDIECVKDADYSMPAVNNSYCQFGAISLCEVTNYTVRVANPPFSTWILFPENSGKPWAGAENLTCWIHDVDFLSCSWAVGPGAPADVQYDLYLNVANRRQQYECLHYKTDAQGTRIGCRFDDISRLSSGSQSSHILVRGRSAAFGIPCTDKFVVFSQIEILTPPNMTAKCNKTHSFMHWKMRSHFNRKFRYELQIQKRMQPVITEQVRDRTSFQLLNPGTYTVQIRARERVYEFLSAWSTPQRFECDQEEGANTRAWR
In words: SPR, Biacore 8K; CD123-Fc-His captured by anti-His, antibody as analyte, 1:1 Langmuir fit. On the procedure:
Binding of antigens to the antibody constructs was measured using surface plasmon resonance (SPR) with a BIAcore 8K instrument (GE Healthcare) with HBS-EP+ buffer (GE Healthcare). For binding kinetics and affinity determination human CD3εδ-Fc-His and human CD123-Fc-His fusion proteins (both from internal source) were used as antigens. The anti-His capture antibody (His capture kit, GE Life Sciences) was immobilized via primary amine groups (11000 RU) on a research grade CM5 chip (GE Life Sciences) using standard procedures. Antigens were captured by the anti-His capture chip surface at a flow rate of 10 μL/min for 90 sec to reach antibody binding levels between 10 and 30 RU. […] Dissociation was measured at 30 μL/min by injection of HBS-EP+ buffer for 1200 sec. The chip surface was regenerated by inject of regeneration buffer (His capture kit, GE Life Sciences). Sensorgrams were double referenced with a blank chip surface and H BS-EP+ buffer blanks. Data were fitted with a 1:1 Langmuir binding model for determination of kinetic and affinity constants ka, kd and KD using Biacore 8K Evaluation software v1.11.7442 (GE Healthcare).
(In general: Surface plasmon resonance follows binding to a sensor surface in real time, without labels.)

Experiment [3] deals with T3, human IL13 (IL012, Millipore) (human, UniProt P35225 35-146). In words: SPR, BIAcore 3000; antibody captured by anti-human Fc, antigen as analyte. On the procedure: as §1
For experiment [4], the target named is T3, human IL13 (IL012, Millipore). Briefly: SPR, BIAcore 3000; antibody captured by anti-human Fc, antigen as analyte; the mark X is not explained. On the procedure:
as §1, with “Data analysis was performed using the BIAevaluation software v4.1.” left out

Experiment [5] has the same target. Briefly: SPR, BIAcore 3000; antibody captured by anti-human Fc, antigen as analyte; column head says nM, but kd/ka gives M. Here is the method:
as §1

Experiment [6] has as its target T1, human HER2 (1129-ER, R&D Systems). Briefly: SPR (BIAcore 3000), binding test with HER2 captured by the anti-human Fc antibody, constructs injected at 100 nM; response as % of theoretical Rmax.
Experiment [7] deals with CD123 on THP-1 target cells (UniProt P26951 19-378, limits assumed). Briefly: cell-based or functional assay.
The target in experiment [8] is T4, Human IL4 (IL004, Millipore) (human, UniProt P05112 25-153).
T4 sequence (looked up): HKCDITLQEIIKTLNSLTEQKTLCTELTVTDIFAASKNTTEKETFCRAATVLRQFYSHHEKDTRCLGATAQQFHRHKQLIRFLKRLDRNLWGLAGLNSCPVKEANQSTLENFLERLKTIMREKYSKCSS
In words: SPR, BIAcore 3000; antibody captured by anti-human Fc, antigen as analyte. Here is the method:
as §1

Experiment [9] has as its target T4, Human IL4 (IL004, Millipore). In words: SPR, BIAcore 3000; antibody captured by anti-human Fc, antigen as analyte; column head says nM, but kd/ka gives M. On the procedure: as §1

T3 sequence (P35225 35-146 limits assumed): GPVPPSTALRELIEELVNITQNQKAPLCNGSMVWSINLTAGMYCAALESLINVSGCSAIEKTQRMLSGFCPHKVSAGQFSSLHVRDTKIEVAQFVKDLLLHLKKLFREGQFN

B1: dsTrasKO variant 1 (dsTrasKO1) (antibody, V domains shown)
VH: EVQLVESGGGLVQPGGSLRLSCAASGFNIKDTAIHWVRQAPGKCLEWVAEIYPTNGYTEYADSVKGRFTISADTSKNTAYLQMNSLRAEDTAVYYCSRWGGDGFAAMDYWGQGTLVTVSS
VL: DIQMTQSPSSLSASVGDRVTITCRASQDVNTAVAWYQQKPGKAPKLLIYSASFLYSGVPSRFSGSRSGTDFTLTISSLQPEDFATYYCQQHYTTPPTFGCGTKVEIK
notes: also called dsTrastuKO variant 1; Variant1 (TrasKO1) with VH44C/VL100C disulfide
For the molecule B1, the binding result in experiment [1] is reported as “no binding (tested: 100 nM)”.

B2: dsTrasKO variant 3 (dsTrasKO3) (antibody, V domains shown)
VH: EVQLVESGGGLVQPGGSLRLSCAASGFNIKDTAIHWVRQAPGKCLEWVARIYPTNGYTRYADSVKGRFTISADTSKNTAYLQMNSLRAEDTAVYYCSRWGGDGFAAMDYWGQGTLVTVSS
VL: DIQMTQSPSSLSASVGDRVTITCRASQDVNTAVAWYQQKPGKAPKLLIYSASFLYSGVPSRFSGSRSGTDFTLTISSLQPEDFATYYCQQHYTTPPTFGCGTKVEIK
notes: also called dsTrastuKO variant 3; Variant3 (TrasKO3) with VH44C/VL100C disulfide
Regarding B2, in [1], the binding result is on record as “no binding (tested: 100 nM)”.

B3: dsTrasKO variant 2 (dsTrasKO2) (antibody, V domains shown)
VH: EVQLVESGGGLVQPGGSLRLSCAASGFNIKDTYIHWVRQAPGKCLEWVAEIYPTNGYTEYADSVKGRFTISADTSKNTAYLQMNSLRAEDTAVYYCSRWGGDGFYAMDYWGQGTLVTVSS
VL: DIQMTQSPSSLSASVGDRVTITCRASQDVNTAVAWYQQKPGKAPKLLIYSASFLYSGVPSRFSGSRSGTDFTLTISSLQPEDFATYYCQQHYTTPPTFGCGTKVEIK
notes: also called dsTrastuKO variant 2; Variant2 (TrasKO2) with VH44C/VL100C disulfide
In the case of B3, the binding result in experiment [1] is given as “no binding (tested: 100 nM)”.

B4: anti-TNP × anti-CD123-dsTrasKO2 Negative control (ID 43) (bispecific antibody, human IgG1, kappa, L234A L235A)
light 1: DVVMTQSPLSLPVTLGQPASISCRSSQSLVHSIGNTYLHWYQQRPGQSPRLLIYKVSNRFSGVPDRFSGSGSGTDFTLKISRVEAEDVGVYYCSQSTHVPFTFGQGTKLEIKRTVAAPSVFIFPPSDEQLKSGTASVVCLLNNFYPREAKVQWKVDNALQSGNSQESVTEQDSKDSTYSLSSTLTLSKADYEKHKVYACEVTHQGLSSPVTKSFNRGEC
heavy 1: not shown
heavy 2: EVQLQQSGPELVKPGASVKMSCKASGYTFTDYYMKWVKQSHGKSLEWIGDIIPSNGATFYNQKFKGKATLTVDRSSSTAYMHLNSLTSEDSAVYYCTRSHLLRASWFAYWGQGTLVTVSAGGGGSGGGGSEVQLVESGGGLVQPGGSLRLSCAASGFNIKDTYIHWVRQAPGKCLEWVAEIYPTNGYTEYADSVKGRFTISADTSKNTAYLQMNSLRAEDTAVYYCSRWGGDGFYAMDYWGQGTLVTVSSDKTHTCPPCPAPEAAGGPSVFLFPPKPKDTLMISRTPEVTCVVVDVSHEDPEVKFNWYVDGVEVHNAKTKPREEQYNSTYRVVSVLTVLHQDWLNGKEYKCKVSNKALPAPIEKTISKAKGQPREPQVCTLPPSRDELTKNQVSLSCAVKGFYPSDIAVEWESNGQPENNYKTTPPVLDSDGSFFLVSKLTVDKSRWQQGNVFSCSVMHEALHNRFTQKSLSLSPG
light 2: not shown
By Kd is commonly meant the concentration at which binding is half-saturated. As to B4, the affinity in [2], expressed as Kd, was 0.546 nM. That is a sub-nanomolar value.

B5: IL13 pseudo-IgG (ID 22) (antibody)
light: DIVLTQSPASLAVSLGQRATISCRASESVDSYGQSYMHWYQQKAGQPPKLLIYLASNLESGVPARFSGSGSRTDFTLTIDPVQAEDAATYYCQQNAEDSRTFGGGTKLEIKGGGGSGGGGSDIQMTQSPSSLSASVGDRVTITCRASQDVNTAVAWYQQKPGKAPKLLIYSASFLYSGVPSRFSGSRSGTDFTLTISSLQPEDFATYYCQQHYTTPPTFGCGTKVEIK
heavy: EVQLKESGPGLVAPGGSLSITCTVSGFSLTDSSINWVRQPPGKGLEWLGMIWGDGRIDYADALKSRLSISKDSSKSQVFLEMTSLRTDDTATYYCARDGYFPYAMDFWGQGTSVTVSSGGGGSGGGGSEVQLVESGGGLVQPGGSLRLSCAASGFNIKDTYIHWVRQAPGKCLEWVAEIYPTNGYTEYADSVKGRFTISADTSKNTAYLQMNSLRAEDTAVYYCSRWGGDGFYAMDYWGQGTLVTVSSDKTHTHHHHHH
notes: also called IL13 mAb Pseudo-IgG
The kon is the rate constant with which the complex forms. The term koff denotes a measure of how fast the partners let go of each other. Consider B5, for which the on-rate (kon) in experiment [3] turned out to be 1.54e+06 M⁻¹ s⁻¹. Moreover, in experiment [4], the koff was found to be 6.56e-07 s⁻¹. The molecule also gave a Kd in experiment [5] of 0.000425 nM. In addition, the binding result in [6] is given as “no binding (tested: 100 nM)”.

B6: anti-CD3ε-dsTrasKO2 × anti-CD123 (ID 38, alternative anti-CD3ε binding domain) (bispecific antibody, human IgG1, kappa, L234A L235A)
light 1: not shown
heavy 1: not shown
heavy 2: EVQLQQSGPELVKPGASVKMSCKASGYTFTDYYMKWVKQSHGKSLEWIGDIIPSNGATFYNQKFKGKATLTVDRSSSTAYMHLNSLTSEDSAVYYCTRSHLLRASWFAYWGQGTLVTVSAASTKGPSVFPLAPSSKSTSGGTAALGCLVKDYFPEPVTVSWNSGALTSGVHTFPAVLQSSGLYSLSSVVTVPSSSLGTQTYICNVNHKPSNTKVDKKVEPKSCDKTHTCPPCPAPEAAGGPSVFLFPPKPKDTLMISRTPEVTCVVVDVSHEDPEVKFNWYVDGVEVHNAKTKPREEQYNSTYRVVSVLTVLHQDWLNGKEYKCKVSNKALPAPIEKTISKAKGQPREPQVCTLPPSRDELTKNQVSLSCAVKGFYPSDIAVEWESNGQPENNYKTTPPVLDSDGSFFLVSKLTVDKSRWQQGNVFSCSVMHEALHNRFTQKSLSLSPG
light 2: DFVMTQSPSSLTVTAGEKVTMSCKSSQSLLNSGNQKNYLTWYLQKPGQPPKLLIYWASTRESGVPDRFTGSGSGTDFTLTISSVQAEDLAVYYCQNDYSYPYTFGGGTKLEIKRTVAAPSVFIFPPSDEQLKSGTASVVCLLNNFYPREAKVQWKVDNALQSGNSQESVTEQDSKDSTYSLSSTLTLSKADYEKHKVYACEVTHQGLSSPVTKSFNRGEC
In the case of B6, the “Cytotox EC50 (dead CFSE/7-AAD double positive THP-1 target cells; human pan T cells, effector:target 10:1, 20 h)” value in [7] stood at 0.00095 nM. In experiment [2], the Kd was determined as 0.332 nM.

B7: anti-TNP-dsTrasKO2 × anti-CD123 Negative control (ID 44) (bispecific antibody, human IgG1, kappa, L234A L235A)
light 1: not shown
heavy 1: not shown
heavy 2: EVQLQQSGPELVKPGASVKMSCKASGYTFTDYYMKWVKQSHGKSLEWIGDIIPSNGATFYNQKFKGKATLTVDRSSSTAYMHLNSLTSEDSAVYYCTRSHLLRASWFAYWGQGTLVTVSAASTKGPSVFPLAPSSKSTSGGTAALGCLVKDYFPEPVTVSWNSGALTSGVHTFPAVLQSSGLYSLSSVVTVPSSSLGTQTYICNVNHKPSNTKVDKKVEPKSCDKTHTCPPCPAPEAAGGPSVFLFPPKPKDTLMISRTPEVTCVVVDVSHEDPEVKFNWYVDGVEVHNAKTKPREEQYNSTYRVVSVLTVLHQDWLNGKEYKCKVSNKALPAPIEKTISKAKGQPREPQVCTLPPSRDELTKNQVSLSCAVKGFYPSDIAVEWESNGQPENNYKTTPPVLDSDGSFFLVSKLTVDKSRWQQGNVFSCSVMHEALHNRFTQKSLSLSPG
light 2: DFVMTQSPSSLTVTAGEKVTMSCKSSQSLLNSGNQKNYLTWYLQKPGQPPKLLIYWASTRESGVPDRFTGSGSGTDFTLTISSVQAEDLAVYYCQNDYSYPYTFGGGTKLEIKRTVAAPSVFIFPPSDEQLKSGTASVVCLLNNFYPREAKVQWKVDNALQSGNSQESVTEQDSKDSTYSLSSTLTLSKADYEKHKVYACEVTHQGLSSPVTKSFNRGEC
In experiment [2], B7 displayed a Kd of 0.287 nM.

B8: IL13 mAb (ID 3, anti-IL13-VL3-IGKC / anti-IL13-VH2-IGHG1) (antibody, human IgG1, kappa, V domains shown)
VH: EVQLKESGPGLVAPGGSLSITCTVSGFSLTDSSINWVRQPPGKGLEWLGMIWGDGRIDYADALKSRLSISKDSSKSQVFLEMTSLRTDDTATYYCARDGYFPYAMDFWGQGTSVTVSS
VL: DIVLTQSPASLAVSLGQRATISCRASESVDSYGQSYMHWYQQKAGQPPKLLIYLASNLESGVPARFSGSGSRTDFTLTIDPVQAEDAATYYCQQNAEDSRTFGGGTKLEIKR
notes: also called IL13mAb-huIgG1
In experiment [3], B8 had a koff of 3.46e-05 s⁻¹ and a kon of 1.28e+06 M⁻¹ s⁻¹. This molecule registered a Kd in experiment [5] of 0.0269 nM.

B9: IL4 mAb (ID 18, anti-IL4-VL1-IGKC / anti-IL4-VH1-IgG1) (antibody, V domains shown)
VH: QVQLQQSGPELVKPGASVKISCKASGYSFTSYWIHWIKQRPGQGLEWIGMIDPSDGETRLNQRFQGRATLTVDESTSTAYMQLRSPTSEDSAVYYCTRLKEYGNYDSFYFDVWGAGTLVTVSS
VL: DIQMTQSPASLSVSVGDTITLTCHASQNIDVWLSWFQQKPGNIPKLLIYKASNLHTGVPSRFSGSGSGTGFTLTISSLQPEDIATYYCQQAHSYPFTFGGGTKLEIKR
notes: also called IL4mAb-huIgG1
In experiment [8], B9 displayed a koff of 0.000161 s⁻¹ and a kon of 1.04e+08 M⁻¹ s⁻¹. The Kd in experiment [9] was 0.00155 nM.
